Assay type in all cases: cell-based
Data set [1] relates to gene editing with Cas9 and dCas9. Briefly: Screen of 322 new SSAP proteins, activity across all experiments (Cas9 and dCas9, Table 5). Also on record: scale not given here. The essentials: (§1)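 The 322 SSAP proteins were found in sequence data and then synthesized. Each was screened for gene editing activity when paired with Cas9 and with dCas9.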
The next data set deals with mammalian cells. Briefly: Arrayed SSAP library screening, cell viability by live cell counts via flow cytometry. Put shortly:
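Each SSAP plasmid transfected in duplicate (~50% efficiency), with RecT SSAP as positive and Flag-HA as negative control. After three days, mKate-positive cells and viability by flow-cytometric live cell counts were quantified to gauge SSAP fitness effects.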
On the technique in general: Flow cytometry measures light scatter and fluorescence of single cells or particles in a stream.

For the next data set, the system named is gene editing with dCas9. As to the kind of experiment: Screen of 322 new SSAP proteins, gene editing activity with dCas9 (Table 5). Set-up: dCas9 with SSAP activity: scale not given here. The essentials: as §1
Another data set relates to gene editing with Cas9. As to the kind of experiment: Screen of 322 new SSAP proteins, gene editing activity with Cas9 (Table 5). Also on record: Cas9 with SSAP activity: scale not given here. The essentials: as §1
The test system of data set [2] is endogenous genome targets (ACTB, HSP90AA1). Briefly: Arrayed SSAP library screening, mKate knock-in assay (editing efficiency). Conditions: average of HSP90 and ACTB, 3 days after transfection; for Editing Efficiency (Normalized, Average, two targets): fold over negative control (Flag_HA); for Editing Efficiency (Absolute, Average, two targets): percent of mKate knock-in. The essentials: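 Mammalian cells in duplicate were transfected with SSAP-encoding plasmids, with about 50% transfection efficiency. mKate knock-in positive cells and viability, by flow-cytometric live counts, were quantified three days later. RecT SSAP served as positive control and Flag-HA plasmid as negative control.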

B1: SSAP_309: SEQ ID NO: 478; Paenibacillus sp. FSL R7-0333 (protein, listed as Paenibacillus sp.)
chain: TVAIELQVQETLDRILDSKHDALPSDFNKKRFSENCKAYVADEKDLHKYSPEEIAANLFKGAVLGLDFLAKECHLISGGVELKFQTDYKGEMKLTKKYSVRPLLDVYAKNVREGDEFREEVIEGRPVIHFAPLPFNASSIIGSFAVALFQDGGMVYESIPAGEIEEIRKNYGKSLGDAWDKSQGEMYKRTVLRRLCKTIETDFDAEQRLIYDAGGAFEFTKQPARSRQQSPFNPPEESEVTQDDRVAETDQG
For B1, the “Activity across all experiments” value in data set [1] is reported as −6.697. In addition, the “Cell Viability (Average, two targets)” value with mammalian cells is 0.9224. Further, in the data set with gene editing with dCas9, the “dCas9 with SSAP activity” value is recorded as −9.420 and the “dCas9 with SSAP activity (normalized)” value was −2.412. For the same molecule, in the data set on gene editing with Cas9, the “Cas9 with SSAP activity” value is listed as −3.975 and the “Cas9 with SSAP activity (normalized)” value was −1.807. Moreover, in data set [2], the “Editing Efficiency (Normalized, Average, two targets)” value was found to be 3.992 and the “Editing Efficiency (Absolute, Average, two targets)” value was determined as 9.885.

B2: SSAP_4: SEQ ID NO: 166 (protein)
chain: MSTALATLAGKLAERVGMDSVDPQELITTLRQTAFKGDASDAQFIALLIVANQYGLNPWTKEIYAFPDKQNGIVPVVGVDGWSRIINENQQFDGMDFEQDNESCTCRIYRKDRNHPICVTEWMDECRREPFKTREGREITGPWQSHPKRMLRHKAMIQCARLAFGFAGIYDKDEAERIVENTAYTAERQPERDITPVNDETMQEINTLLIALDKTWDDDLLPLCSQIFRRDIRASSELTQAEAVKALGFLKQKAAEQKVAA
modifications: Lambda
Regarding B2, in data set [1], the “Activity across all experiments” value is recorded as −4.940. Also, the “Cell Viability (Average, two targets)” value in the data set with mammalian cells was found to be 1.192. Moreover, in the data set on gene editing with dCas9, the “dCas9 with SSAP activity” value is given as −6.997 and the “dCas9 with SSAP activity (normalized)” value was −1.447. Further, in the data set with gene editing with Cas9, the “Cas9 with SSAP activity” value is reported as −2.882 and the “Cas9 with SSAP activity (normalized)” value is given as −0.474. Moreover, in data set [2], the “Editing Efficiency (Normalized, Average, two targets)” value came out at 5.57 and the “Editing Efficiency (Absolute, Average, two targets)” value is recorded as 13.8.

B3: SSAP_229: SEQ ID NO: 398; Amycolatopsis sp. CB00013 (protein, listed as Amycolatopsis sp.)
chain: TTQTVTSAVAQQDSSPAALVRKYRTDFATVLPSHIKPETWLRIATGALRRSSQLAHAAEKNPTSLLVALLDAARKGLEPGTEQYYLVPRKTKRGPEVLGITGYQGEVELMYRAGAVSSVKVEGVREHDTFAYNPGEHDRPVHEINWRANRGDLVLAYAYAYAKMRDGATSNVSVLSADDIAVILSKAEGADSPFSPWQWNPKAMWLKSAAHQLAKWVPTSAERVWQPDGPPLEAPPATPVTLPTVEDVVDAEVVEDWPTTPADTADSEQ
As for B3, the “Activity across all experiments” value in data set [1] was −6.122. In addition, in the data set with mammalian cells, the “Cell Viability (Average, two targets)” value is reported as 0.8776. Also, the “dCas9 with SSAP activity” value in the data set on gene editing with dCas9 is reported as −9.275. Further, in the data set on gene editing with Cas9, the “Cas9 with SSAP activity” value is on record as −2.969 and the “Cas9 with SSAP activity (normalized)” value is −0.509. For the same molecule, in data set [2], the “Editing Efficiency (Normalized, Average, two targets)” value turned out to be 3.971 and the “Editing Efficiency (Absolute, Average, two targets)” value is recorded as 9.8525.

B4: SSAP_158: SEQ ID NO: 327; Nakamurella lactea (protein)
chain: ASNLAARAAEQVEQQTAPNRPPTIKEQIGRMESQFALAMPRGSEAAQLVRDAITAINTNPQLAECTPASVLGALMTCAQLGLRPGVLGHAWVLPFRSKGVMQAQLVIGYQGLVELAHRTGQVASLIAREVHERDHFDVDYGLADSLIHKPLLNGDRGPVTGYYAIVKFKGGGHSFIYASKADVEAHRDKFSKMKSFGPWVDNFDSMALKTVVRMLAKWMPKSTEFANAISADEGVRVDYSPTADVAQATEYVQPQLEEAPVEGVVVSEGGES
modifications: Nakamurella lacteal
notes: Nakamurella lactea
As for B4, the “Activity across all experiments” value in data set [1] is −4.070. The “Cell Viability (Average, two targets)” value in the data set on mammalian cells was found to be 0.9945. Moreover, in the data set on gene editing with dCas9, the “dCas9 with SSAP activity” value was −6.910 and the “dCas9 with SSAP activity (normalized)” value is recorded as −1.386. In addition, in the data set on gene editing with Cas9, the “Cas9 with SSAP activity” value is −1.229 and the “Cas9 with SSAP activity (normalized)” value is on record as −0.520. In data set [2], the “Editing Efficiency (Normalized, Average, two targets)” value is listed as 5.44 and the “Editing Efficiency (Absolute, Average, two targets)” value was 13.45.

B5: SSAP_36: SEQ ID NO: 205 (protein)
chain: SSIAAAAESAEVTPASIINKYRDDIATVLPPKLRERIDRWIRLAIGAVNSNPELISRVRADQGASMMQALMKCAALGHEPGSGLFHLVPKGSRIEGWEDYKGILQRIDRSGVYARTVIGVVYANDEYSYDQNVDERPRHVRATGDRGEPISSYAYAVYPSGAITTVAEATPEQIASSKSKARGADNAASPWRAPGAPMHRKVAVRLLEKHVATSAEDRREPISRSAANDVVIDATADYYQEP
As for B5, in data set [1], the “Activity across all experiments” value is recorded as −6.514. Further, in the data set on mammalian cells, the “Cell Viability (Average, two targets)” value came to 0.9418. For the same molecule, in the data set with gene editing with dCas9, the “dCas9 with SSAP activity” value is given as −8.909 and the “dCas9 with SSAP activity (normalized)” value is given as −1.787. Moreover, in the data set with gene editing with Cas9, the “Cas9 with SSAP activity” value is −4.118 and the “Cas9 with SSAP activity (normalized)” value is recorded as −0.619. In addition, in data set [2], the “Editing Efficiency (Normalized, Average, two targets)” value came to 6.383 and the “Editing Efficiency (Absolute, Average, two targets)” value is 15.8.

B6: SSAP_221: SEQ ID NO: 390; Streptomyces sp. 351MFTsu5.1 (protein, listed as Streptomyces sp.)
chain: SQISNAIEKRDQGPGAVIEQYKQELALVAASHVKVDTFARLAVGALRQNPKLAAAAQSNPGSLMSALMTAARLGLEPGTEQFYLRPIKRKGVAEVQGIVGYQGIVELIYNAGAASSVVVEVVRANDQFNYVPGLHERPVHNVDWFGDRGDLVGVYAYAVMAGGATSKVVVLSRTHINRAKAKSDGADSDYSPWRTDEEAMWLKTAARRLGKWVPTSAERLTMPAERTDTVLPVGSAAPALDAADPDEDEGPVDGELEPAGGWPETAQPPQ
With B6, in data set [1], the “Activity across all experiments” value is −6.275. Also, the “Cell Viability (Average, two targets)” value in the data set on mammalian cells was 0.9772. The “dCas9 with SSAP activity” value in the data set with gene editing with dCas9 is −8.056. For the same molecule, in the data set with gene editing with Cas9, the “Cas9 with SSAP activity” value is on record as −4.494 and the “Cas9 with SSAP activity (normalized)” value is recorded as −0.728. In data set [2], the “Editing Efficiency (Normalized, Average, two targets)” value was found to be 4.587 and the “Editing Efficiency (Absolute, Average, two targets)” value is reported as 11.35.

B7: SSAP_194: SEQ ID NO: 363; Streptomyces sp. CS014 (protein, listed as Streptomyces sp.)
chain: TENTVTAAVAVRDTGPAAQIEAYRDEYAALVPSHINADQWVRLAVGAIRGNEDLTNAARTDIGVFLRELKTAARLGLEPGTEQFYLTPRKSKAHRGQKIIKGIVGYQGIIELIYRAGAVSSVIVESVRANDTFRYVIGRDERPVHEIDWFGGDRGDLVGVYAYATMKDGATSKVVVLNHAQVMQIRAKSDSKHSEYSPWNTNPESMWLKSAVRQLMKWVPTSAEYMREQLRAQAEVAAEQPPAADLPPMPSVELNDEDEAVDAELVDEEA
Turning to B7, in data set [1], the “Activity across all experiments” value is −3.031. In the data set with mammalian cells, the “Cell Viability (Average, two targets)” value was determined as 1.139. Moreover, in the data set with gene editing with dCas9, the “dCas9 with SSAP activity” value is on record as −8.790. Moreover, in the data set on gene editing with Cas9, the “Cas9 with SSAP activity” value is recorded as 2.727 and the “Cas9 with SSAP activity (normalized)” value stood at 3.516. Moreover, in data set [2], the “Editing Efficiency (Normalized, Average, two targets)” value was found to be 4.924 and the “Editing Efficiency (Absolute, Average, two targets)” value worked out at 12.175.

B8: SSAP_12: SEQ ID NO: 181 (protein)
chain: STALATLAGKLAERVGMDSVDPQELITTLRQTAFKGDASDAQFIALLIVANQYGLNPWTKEIYAFPDKQNGIVPVVGVDGWSRIINENQQFDGMDFEQDNESCTCRIYRKDRNHPICVTEWMDECRREPFKTREGREITGPWQSHPKRMLRHKAMIQCARLAFGFAGIYDKDEAERIVENTAYTAERQPERDITPVNDETMQEINTLLIALDKTWDDDLLPLCSQIFRRDIRASSELTQAEAVKALGFLKQKASEQKVAA
B8: the “Activity across all experiments” value in data set [1] is recorded as −7.690. The “Cell Viability (Average, two targets)” value in the data set with mammalian cells is on record as 1.291. In the data set with gene editing with dCas9, the “dCas9 with SSAP activity” value is given as −7.567 and the “dCas9 with SSAP activity (normalized)” value is given as −1.196. Further, in the data set with gene editing with Cas9, the “Cas9 with SSAP activity” value is −7.814 and the “Cas9 with SSAP activity (normalized)” value was −1.324. Moreover, in data set [2], the “Editing Efficiency (Normalized, Average, two targets)” value amounted to 4.263 and the “Editing Efficiency (Absolute, Average, two targets)” value came to 10.5525.

B9: SSAP_15: SEQ ID NO: 184 (protein)
chain: AKNELAKGSYLTDLQKLDGNTLRDFVDPKHQASPQELQALLAIVKGRNLNPFTKEVYFIKYGSAPAQIVVSKEAIMKRAEENPDFDGFEAGIVVETKDGAIERLTGTIVPKSATLRGGWCKVYRKDRSHAIEADADFAYYTTSKNLWQKMPALMIRKVAIVSAFREAFSESVGGLYTADEMQRETQAEVRARKMKEAYEEKLYLLTQMEAKSYKKTKSKNENEAKKTKEAEAIETVEEPTQDGNLEW
For B9, the “Activity across all experiments” value in data set [1] was −1.288. For the same molecule, the “Cell Viability (Average, two targets)” value in the data set on mammalian cells is 1.226. For the same molecule, in the data set on gene editing with dCas9, the “dCas9 with SSAP activity” value was −0.701 and the “dCas9 with SSAP activity (normalized)” value was −2.250. In the data set on gene editing with Cas9, the “Cas9 with SSAP activity” value is −1.876 and the “Cas9 with SSAP activity (normalized)” value was −0.850. In addition, in data set [2], the “Editing Efficiency (Normalized, Average, two targets)” value worked out at 5.477 and the “Editing Efficiency (Absolute, Average, two targets)” value stood at 13.55.

(Values after patent US20250034594A1, “RNA-GUIDED GENOME RECOMBINEERING AT KILOBASE SCALE” (THE BOARD OF TRUSTEES OF THE LELAND STANFORD JUNIOR …, priority 2021, published 2025).)
